From patent US20250034267A1 (published 2025)
Values belong to the binder of their own block, whether it stands above or below them.

Columns and labels:
[1] = target: T1, human CD25 (Sino Biologicals, 10165-H08H) (human, UniProt P01589 22-213); assay: ELISA, plate coated with human CD25; average of n>=3; SD 3.2
T1 construct: Bought recombinant protein coated on ELISA plates; also called immobilized human CD25; IL2RA
T1 sequence (looked up): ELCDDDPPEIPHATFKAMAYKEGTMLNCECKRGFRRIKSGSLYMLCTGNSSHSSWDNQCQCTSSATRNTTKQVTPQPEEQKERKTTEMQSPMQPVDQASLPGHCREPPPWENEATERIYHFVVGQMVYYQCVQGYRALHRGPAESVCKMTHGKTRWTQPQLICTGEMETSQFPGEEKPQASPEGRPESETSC

[2] = target: T2, CD25 endogenously expressed on SUDHL-1 human lymphoma cell line and induced human Treg (iTreg) (human, UniProt P01589 22-272); assay: flow cytometry on iTreg cells; average of n=3; SD 83.94
T2 construct: whole, on cells; The cell type (SUDHL-1 or iTreg) is named under assay in each row; also called CD25 on SUDHL-1 and iTreg; CD25 expressing SUDHL-1
T2 sequence (looked up): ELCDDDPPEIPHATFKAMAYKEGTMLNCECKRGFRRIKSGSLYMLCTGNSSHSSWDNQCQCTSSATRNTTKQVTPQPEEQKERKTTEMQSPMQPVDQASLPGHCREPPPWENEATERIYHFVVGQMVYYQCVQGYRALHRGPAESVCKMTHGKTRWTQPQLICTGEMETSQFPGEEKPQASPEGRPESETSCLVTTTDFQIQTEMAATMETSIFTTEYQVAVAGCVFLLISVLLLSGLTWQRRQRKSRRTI

[3] = target: T3, CD25 (as used on the Carterra LSA) (Homo sapiens (Human), UniProt P01589 22-240); assay: Carterra LSA binding kinetics
T3 sequence: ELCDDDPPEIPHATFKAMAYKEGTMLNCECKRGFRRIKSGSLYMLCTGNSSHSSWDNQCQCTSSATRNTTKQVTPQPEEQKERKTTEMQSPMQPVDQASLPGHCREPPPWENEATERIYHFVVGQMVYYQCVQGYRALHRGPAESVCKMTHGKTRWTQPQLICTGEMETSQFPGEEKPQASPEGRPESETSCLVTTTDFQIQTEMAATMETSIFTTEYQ

[4] = target: T3, CD25 (as used on the Carterra LSA); assay: Carterra LSA binding kinetics; KD SD 1.27 nM
[5] = target: T4, cynomolgus CD25 (Sino Biologicals, 90265-C08H) (cynomolgus, UniProt H6WS54 22-240); assay: ELISA, plate coated with cynomolgus CD25; average of n>=3; SD 9.8
T4 construct: Bought recombinant protein coated on ELISA plates; also called cynos monkey CD25; immobilized cynomolgus CD25
T4 sequence: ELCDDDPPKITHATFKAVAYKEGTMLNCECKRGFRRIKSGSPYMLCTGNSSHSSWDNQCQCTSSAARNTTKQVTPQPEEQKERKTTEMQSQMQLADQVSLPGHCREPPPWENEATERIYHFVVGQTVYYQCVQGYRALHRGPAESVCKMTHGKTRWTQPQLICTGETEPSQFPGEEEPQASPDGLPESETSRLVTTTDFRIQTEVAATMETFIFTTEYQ

[6] = target: T2, CD25 endogenously expressed on SUDHL-1 …; assay: cell-based or functional assay
[7] = target: T5, human IL2R on HEK blue human IL2R overexpressing cell line (human, UniProt P01589 22-272; P14784 27-551; P31785 23-369); assay: cell-based or functional assay
T5 sequence (looked up) 1: T2 sequence (looked up)
T5 sequence (looked up) 2: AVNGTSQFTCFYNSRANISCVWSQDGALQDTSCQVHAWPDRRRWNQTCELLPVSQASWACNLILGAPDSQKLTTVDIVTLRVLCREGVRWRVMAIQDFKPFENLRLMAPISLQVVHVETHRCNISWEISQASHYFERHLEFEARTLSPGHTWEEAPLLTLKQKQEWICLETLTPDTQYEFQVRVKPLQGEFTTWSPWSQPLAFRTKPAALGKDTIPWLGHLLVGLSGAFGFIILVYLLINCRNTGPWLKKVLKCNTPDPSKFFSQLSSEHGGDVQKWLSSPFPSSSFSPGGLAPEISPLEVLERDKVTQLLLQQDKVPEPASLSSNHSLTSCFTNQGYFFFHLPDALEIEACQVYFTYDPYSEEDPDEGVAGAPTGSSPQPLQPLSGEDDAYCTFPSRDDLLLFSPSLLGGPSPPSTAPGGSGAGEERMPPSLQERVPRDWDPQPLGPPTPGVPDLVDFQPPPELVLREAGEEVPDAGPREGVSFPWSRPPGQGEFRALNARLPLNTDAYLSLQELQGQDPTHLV
T5 sequence (looked up) 3: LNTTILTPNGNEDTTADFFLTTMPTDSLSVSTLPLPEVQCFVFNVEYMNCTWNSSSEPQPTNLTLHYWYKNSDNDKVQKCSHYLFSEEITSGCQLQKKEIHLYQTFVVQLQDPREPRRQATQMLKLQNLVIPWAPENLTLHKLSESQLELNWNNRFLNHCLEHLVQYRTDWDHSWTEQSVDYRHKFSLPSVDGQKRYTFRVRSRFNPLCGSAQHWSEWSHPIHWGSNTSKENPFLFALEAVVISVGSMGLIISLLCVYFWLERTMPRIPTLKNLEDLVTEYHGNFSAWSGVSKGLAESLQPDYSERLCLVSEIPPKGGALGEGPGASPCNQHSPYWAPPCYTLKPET

[8] = target: T2, CD25 endogenously expressed on SUDHL-1 …; assay: cell-based or functional assay; remark: listed apart in the source
[9] = target: T2, CD25 endogenously expressed on SUDHL-1 …; assay: flow cytometry on SUDHL-1 cells; average of n>=6; SD 38.12
[10] = target: T2, CD25 endogenously expressed on SUDHL-1 …; assay: flow cytometry on iTreg cells; average of n=3; SD 40.50
[11] = target: T1, human CD25 (Sino Biologicals, …); assay: ELISA, plate coated with human CD25; average of n>=3; SD 2.5
[12] = target: T2, CD25 endogenously expressed on SUDHL-1 …; assay: flow cytometry on SUDHL-1 cells; average of n>=6; SD 39.9
[13] = target: T4, cynomolgus CD25 (Sino Biologicals, …); assay: ELISA, plate coated with cynomolgus CD25; average of n>=3; SD 12.3
[14] = target: T3, CD25 (as used on the Carterra LSA); assay: Carterra LSA binding kinetics; KD SD 1.03 nM
[15] = target: T2, CD25 endogenously expressed on SUDHL-1 …; assay: flow cytometry on SUDHL-1 cells; average of n>=6; SD 39.71
[16] = target: T2, CD25 endogenously expressed on SUDHL-1 …; assay: flow cytometry on iTreg cells; average of n=3; SD 63.88
[17] = target: T4, cynomolgus CD25 (Sino Biologicals, …); assay: ELISA, plate coated with cynomolgus CD25; average of n>=3; SD 8.8
[18] = target: T3, CD25 (as used on the Carterra LSA); assay: Carterra LSA binding kinetics; KD SD 0.69 nM
[19] = target: T1, human CD25 (Sino Biologicals, …); assay: ELISA, plate coated with human CD25; average of n>=3; SD 3.3
[20] = target: T2, CD25 endogenously expressed on SUDHL-1 …; assay: flow cytometry on iTreg cells; average of n=3; SD 44.59
[21] = target: T4, cynomolgus CD25 (Sino Biologicals, …); assay: ELISA, plate coated with cynomolgus CD25; average of n>=3; SD 19.5
[22] = target: T3, CD25 (as used on the Carterra LSA); assay: Carterra LSA binding kinetics; KD SD 0.37 nM
[23] = target: T1, human CD25 (Sino Biologicals, …); assay: ELISA, plate coated with human CD25; average of n>=3; SD 4.9
[24] = target: T2, CD25 endogenously expressed on SUDHL-1 …; assay: flow cytometry on SUDHL-1 cells; average of n>=6; SD 26.2

EC50 [1]: 0.0174 µg/mL | EC50 [2]: 0.218 µg/mL | koff [3]: 0.00207 s⁻¹ | kon [3]: 492000 M⁻¹ s⁻¹ | Kd [4]: 4.27 nM | EC50 [5]: 0.0424 µg/mL | EC50, SUDHL-1/NFAT CD16 ADCC reporter assay [6]: 0.0089 µg/mL | EC50, IL-2 reporter HEK293 pSTAT5 assay (activation of STAT5 by IL2 in presence of the antibody) [7]: 0.17 ng/ml | EC50, iTreg/NFAT CD16 ADCC reporter assay [8]: 0.00714 µg/mL | EC50 [9]: 0.123 µg/mL
B1: IBIO-101-plant-afuc (SD-889825-PC-A; IBIO-101, c-105 plant Afucosylated) (antibody, human IgG1, kappa, V domains shown)
VH: QVQLVQSGAEVKKPGASLKISCKGSGYTFTDYAMHWVRQAPGQGLEWIGVISTYSGDAIYAQKFQGRATMTVDTSTSTAYLELSSLRSEDTAVYYCARGVTFDYWGQGTTVTVSS
VL: DIQMTQSPSSLSASVGDRVTITCRASQDISNYLEWYQQKPGKAPKLLVYNAKTLAEGVPSRFSGSGSGTDFTLTISSLQPEDFGTYYCQHHYDTPYTFGQGTKLEIKR
notes: Same antibody made in C105 deltaXT/FT N. benthamiana plants, glycans without fucose and xylose; also called RTX-003; hD11

EC50 [10]: 0.219 µg/mL | EC50 [11]: 0.0156 µg/mL | EC50 [12]: 0.126 µg/mL | EC50 [13]: 0.0431 µg/mL | koff [3]: 0.00119 s⁻¹ | kon [3]: 499000 M⁻¹ s⁻¹ | Kd [14]: 3.9 nM | EC50, SUDHL-1/NFAT CD16 ADCC reporter assay [6]: 0.0072 µg/mL | EC50, IL-2 reporter HEK293 pSTAT5 assay (activation of STAT5 by IL2 in presence of the antibody) [7]: 0.17 ng/ml | EC50, iTreg/NFAT CD16 ADCC reporter assay [8]: 0.00471 µg/mL
B2: IBIO-101-CHO-afuc (SD-889825-CG-A; IBIO-101, CHO cells Afucosylated) (antibody, human IgG1, kappa, V domains shown)
VH: B1 VH
VL: B1 VL
notes: Same antibody made in CHO cells, afucosylated glycans; also called RTX-003; hD11

EC50 [15]: 0.126 µg/mL | EC50 [16]: 0.235 µg/mL | EC50 [17]: 0.0439 µg/mL | koff [3]: 0.0012 s⁻¹ | kon [3]: 485000 M⁻¹ s⁻¹ | EC50, SUDHL-1/NFAT CD16 ADCC reporter assay [6]: 0.0325 µg/mL | EC50, IL-2 reporter HEK293 pSTAT5 assay (activation of STAT5 by IL2 in presence of the antibody) [7]: 0.21 ng/ml | Kd [18]: 4.2 nM | EC50 [19]: 0.016 µg/mL | EC50, iTreg/NFAT CD16 ADCC reporter assay [8]: 0.0303 µg/mL
B3: IBIO-101-plant-WT (SD-889825-PW-A; IBIO-101, wild-type plant) (antibody, human IgG1, kappa, V domains shown)
VH: B1 VH
VL: B1 VL
notes: Same antibody made in wild-type Nicotiana benthamiana plants; also called RTX-003; hD11

EC50 [20]: 0.223 µg/mL | EC50 [21]: 0.0544 µg/mL | Kd [22]: 4.1 nM | koff [3]: 0.00192 s⁻¹ | kon [3]: 471000 M⁻¹ s⁻¹ | EC50 [23]: 0.0199 µg/mL | EC50, SUDHL-1/NFAT CD16 ADCC reporter assay [6]: 0.0845 µg/mL | EC50, IL-2 reporter HEK293 pSTAT5 assay (activation of STAT5 by IL2 in presence of the antibody) [7]: 0.17 ng/ml | EC50 [24]: 0.123 µg/mL | EC50, iTreg/NFAT CD16 ADCC reporter assay [8]: 0.0538 µg/mL
B4: IBIO-101-CHO-WT (SD-889825-CW-A; IBIO-101, wild-type CHO cells) (antibody, human IgG1, kappa, V domains shown)
VH: B1 VH
VL: B1 VL
notes: The signal peptide is marked only by bold print (lost here); also called RTX-003; hD11
